Results published in patent publication US12295987B2, “Method of using a GIP/GLP1 co-agonist for diabetes” (Eli Lilly and Company, priority 2018, dated 2025).

Molecular target: T1, human gastric inhibitory peptide receptor (hGIPR) (Homo sapiens, UniProt P48546)
T1 construct: expressed in transfected cells; host or cells: HEK293
T1 sequence (P48546 22-466): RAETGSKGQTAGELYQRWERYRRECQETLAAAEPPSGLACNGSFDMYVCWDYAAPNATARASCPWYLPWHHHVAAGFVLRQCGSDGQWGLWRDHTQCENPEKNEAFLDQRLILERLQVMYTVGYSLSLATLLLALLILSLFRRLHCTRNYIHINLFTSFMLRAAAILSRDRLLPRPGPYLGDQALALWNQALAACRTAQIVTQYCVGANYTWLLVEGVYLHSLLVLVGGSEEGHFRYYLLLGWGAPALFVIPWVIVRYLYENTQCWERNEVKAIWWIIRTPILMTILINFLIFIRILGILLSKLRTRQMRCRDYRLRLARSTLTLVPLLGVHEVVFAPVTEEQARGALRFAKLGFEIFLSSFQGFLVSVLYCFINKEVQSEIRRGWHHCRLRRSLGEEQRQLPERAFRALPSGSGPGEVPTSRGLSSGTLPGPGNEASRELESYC
Test: cAMP pharmacological functional assay in presence of 0.1% casein, hGIPR
Type: cell-based
Conditions: ratio of hGIPR to hGLP1R cAMP EC50 ratios
Method: Each receptor over-expressing cell line (20 μl) is treated with the test peptide in DMEM (Gibco Cat #31053) supplemented with 0.1% Casein (Sigma Cat #C4765), 250 μM IBMX, 1× GlutaMAX™ (Gibco Cat #35050), and 20 mM HEPES (HyClone Cat #SH30237.01) in a 20 μl assay volume. […] EC50 is the concentration of compound causing half-maximal simulation in a dose response curve. A relative EC50 value is derived by non-linear regression analysis using the percent maximal response vs. the concentration of peptide added, fitted to a four-parameter logistic equation.
Intracellular cAMP levels are determined by extrapolation using a standard curve. Dose response curves of compounds are plotted as the percentage of stimulation normalized to minimum (buffer only) and maximum (maximum concentration of each control ligand) values and analyzed using a four parameter non-linear regression fit with a variable slope (Genedata Screener 13). EC50 is the concentration of compound causing half-maximal simulation in a dose response curve.
EC50 is the concentration of compound causing half-maximal simulation in a dose response curve.

| Substance | [hGIPR/hGLP1R] EC50 Ratio |
| --- | --- |
| Y-Aib-EGT-αMeF(2F)-TSD-4Pal-SI-αMeL-LDEK((2-[2-(2-Amino-ethoxy)-ethoxy]-acetyl)2-(γGlu)-CO—(CH2)16—CO2H)AQ-Aib-EFI-(D-Glu)-YLIEGGPSSGAPPPS-NH2 (YXEGTXTSDXSIXLDEKAQXEFIXYLIEGGPSSGAPPPS; Aib, αMeF(2F), 4Pal, αMeL, D-Glu; lipidated K; amide; (2)..(2) Xaa at position 2 is Aib; (6)..(6) Xaa at position 6 is alpha-methyl-Phe(2F); (10)..(10) Xaa at position 10 is 4Pal; (13)..(13) Xaa at position 13 is alpha-methyl-Leu; MOD_RES (17)..(17) Lys at position 17 is chemically modified by conjugation of the epsilon-amino group of the Lys side chain with (2-[2-(2-amino-ethoxy)-ethoxy]-acetyl)2-(gamma-Glu)-CO-(CH2)16- CO2H; (20)..(20) Xaa at posit) [Peptide 204] | 6.65 |
| Y-Aib-EGT-αMeF(2F)-TSD-4Pal-SI-αMeL-LDEK((2-[2-(2-Amino-ethoxy)-ethoxy]-acetyl)2-(γGlu)-CO—(CH2)18—CO2H)AQ-Aib-EFI-(D-Glu)-YLIEGGPSSGAPPPS-NH2 (YXEGTXTSDXSIXLDEKAQXEFIXYLIEGGPSSGAPPPS; Aib, αMeF(2F), 4Pal, αMeL, D-Glu; lipidated K; amide; (2)..(2) Xaa at position 2 is Aib; (6)..(6) Xaa at position 6 is alpha-methyl-Phe(2F); (10)..(10) Xaa at position 10 is 4Pal; (13)..(13) Xaa at position 13 is alpha-methyl-Leu; MOD_RES (17)..(17) Lys at position 17 is chemically modified by conjugation of the epsilon-amino group of the Lys side chain with (2-[2-(2-amino-ethoxy)-ethoxy]-acetyl)2-(gamma-Glu)-CO-(CH2)18- CO2H; (20)..(20) Xaa at posit) [Peptide 182] | 5.01 |
| Y-Aib-EGT-αMeF(2F)-TSD-4Pal-SI-αMeL-LDEK((2-[2-(2-Amino-ethoxy)-ethoxy]-acetyl)2-(γGlu)-CO—(CH2)18—CO2H)AQ-Aib-EFI-Aib-YLIEGGPSSGAPPPS-NH2 (YXEGTXTSDXSIXLDEKAQXEFIXYLIEGGPSSGAPPPS; Aib, αMeF(2F), 4Pal, αMeL; lipidated K; amide; (2)..(2) Xaa at position 2 is Aib; (6)..(6) Xaa at position 6 is alpha-methyl-Phe(2F); (10)..(10) Xaa at position 10 is 4Pal; (13)..(13) Xaa at position 13 is alpha-methyl-Leu; MOD_RES (17)..(17) Lys at position 17 is chemically modified by conjugation of the epsilon-amino group of the Lys side chain with (2-[2-(2-amino-ethoxy)-ethoxy]-acetyl)2-(gamma-Glu)-CO-(CH2)18- CO2H; (20)..(20) Xaa at posit) [Peptide 189] | 3.61 |
| Y-Aib-EGT-αMeF(2F)-TSD-4Pal-SI-αMeL-LDEK((2-[2-(2-Amino-ethoxy)-ethoxy]-acetyl)2-(εK)-CO—(CH2)18—CO2H)AQ-Aib-EFI-(D-Glu)-YLIEGGPSSGAPPPS-NH2 (YXEGTXTSDXSIXLDEKAQXEFIXYLIEGGPSSGAPPPS; Aib, αMeF(2F), 4Pal, αMeL, D-Glu; εK-lipidated K; amide; (2)..(2) Xaa at position 2 is Aib; (6)..(6) Xaa at position 6 is alpha-methyl-Phe(2F); (10)..(10) Xaa at position 10 is 4Pal; (13)..(13) Xaa at position 13 is alpha-methyl-Leu; MOD_RES (17)..(17) Lys at position 17 is chemically modified by conjugation of the epsilon-amino group of the Lys side chain with (2-[2-(2-Amino-ethoxy)-ethoxy]-acetyl)2-(epsilon-Lys)-CO-(CH2)18- CO2H; (20)..(20) Xaa at pos) [Peptide 207] | 3.87 |
| Y-Aib-EGT-αMeF(2F)-TSD-4Pal-SI-αMeL-LDEK((2-[2-(2-Amino-ethoxy)-ethoxy]-acetyl)2-CO—(CH2)16—CO2H)AQ-Aib-EFI-(D-Glu)-YLIEGGPSSGAPPPS-NH2 (YXEGTXTSDXSIXLDEKAQXEFIXYLIEGGPSSGAPPPS; Aib, αMeF(2F), 4Pal, αMeL, D-Glu; lipidated K; amide; (2)..(2) Xaa at position 2 is Aib; (6)..(6) Xaa at position 6 is alpha-methyl-Phe(2F); (10)..(10) Xaa at position 10 is 4Pal; (13)..(13) Xaa at position 13 is alpha-methyl-Leu; MOD_RES (17)..(17) Lys at position 17 is chemically modified by conjugation of the epsilon-amino group of the Lys side chain with (2-[2-(2-amino-ethoxy)-ethoxy]-acetyl)2-CO-(CH2)16-CO2H; (20)..(20) Xaa at position 20 is Aib) [Peptide 205] | 3.91 |
| Y-Aib-EGT-αMeF(2F)-TSD-4Pal-SI-αMeL-LDEK((2-[2-(2-Amino-ethoxy)-ethoxy]-acetyl)2CO—(CH2)18—CO2H)AQ-Aib-EFI-(D-Glu)-YLIEGGPSSGAPPPS-NH2 (YXEGTXTSDXSIXLDEKAQXEFIXYLIEGGPSSGAPPPS; Aib, αMeF(2F), 4Pal, αMeL, D-Glu; lipidated K; amide; (2)..(2) Xaa at position 2 is Aib; (6)..(6) Xaa at position 6 is alpha-methyl-Phe(2F); (10)..(10) Xaa at position 10 is 4Pal; (13)..(13) Xaa at position 13 is alpha-methyl-Leu; MOD_RES (17)..(17) Lys at position 17 is chemically modified by conjugation of the epsilon-amino group of the Lys side chain with (2-[2-(2-amino-ethoxy)-ethoxy]-acetyl)2-CO-(CH2)18-CO2H; (20)..(20) Xaa at position 20 is Aib) [Peptide 206] | 3.35 |
| Y-Aib-EGT-αMeF(2F)-TSD-4Pal-SI-αMeL-LDKK((2-[2-(2-Amino-ethoxy)-ethoxy]-acetyl)2-(γGlu)-CO—(CH2)18—CO2H)AQ-Aib-EFI-(D-Glu)-YLIEGGPSSGAPPPS-NH2 (YXEGTXTSDXSIXLDKKAQXEFIXYLIEGGPSSGAPPPS; Aib, αMeF(2F), 4Pal, αMeL, D-Glu; lipidated K; amide; (2)..(2) Xaa at position 2 is Aib; (6)..(6) Xaa at position 6 is alpha-methyl-Phe(2F); (10)..(10) Xaa at position 10 is 4Pal; (13)..(13) Xaa at position 13 is alpha-methyl-Leu; MOD_RES (17)..(17) Lys at position 17 is chemically modified by conjugation of the epsilon-amino group of the Lys side chain with (2-[2-(2-amino-ethoxy)-ethoxy]-acetyl)2-(gamma-Glu)-CO-(CH2)18- CO2H; (20)..(20) Xaa at posit) [Peptide 203] | 7.38 |
| Y-Aib-EGT-αMeF(2F)-TSD-4Pal-SI-αMeL-LDKK((2-[2-(2-Amino-ethoxy)-ethoxy]-acetyl)-(γGlu)-(2-[2-(2-Amino-ethoxy)-ethoxy]-acetyl)-CO—(CH2)18—CO2H)AQ-Aib-EFI-(D-Glu)-YLIEGGPSSGAPPPS-NH2 (YXEGTXTSDXSIXLDKKAQXEFIXYLIEGGPSSGAPPPS; Aib, αMeF(2F), 4Pal, αMeL, D-Glu; lipidated K; amide; (2)..(2) Xaa at position 2 is Aib; (6)..(6) Xaa at position 6 is alpha-methyl-Phe(2F); (10)..(10) Xaa at position 10 is 4Pal; (13)..(13) Xaa at position 13 is alpha-methyl-Leu; MOD_RES (17)..(17) Lys at position 17 is chemically modified by conjugation of the epsilon-amino group of the Lys side chain with (2-[2-(2-Amino-ethoxy)-ethoxy]-acetyl)-(gamma-Glu)-(2-[2-(2-Amino- ethoxy)-ethoxy]-acetyl)-CO) [Peptide 202] | 6.73 |
